Assay results from patent publication US20110033935.

Target: T1, HSV2
T1 chain: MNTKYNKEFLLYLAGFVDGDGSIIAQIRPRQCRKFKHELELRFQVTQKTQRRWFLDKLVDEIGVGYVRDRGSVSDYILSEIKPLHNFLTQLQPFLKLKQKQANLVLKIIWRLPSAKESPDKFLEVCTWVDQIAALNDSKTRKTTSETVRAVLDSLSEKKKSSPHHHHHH

B1: HSV1 (protein)
chain: MNTKYNKEFLLYLAGFVDGDGSIIAQIKPRQSCKFKHELRLQFQVTQKTQRRWFLDKLVDEIGVGYVRDRGSVSDYILSEIKPLHNFLTQLQPFLKLKQKQANLVLKIIWRLPSAKESPDKFLEVCTWVDQIAALNDSKTRKTTSETVRAVLDSLSEKKKSSPHHHHHH
- cleavage of a linearized DNA substrate with the intended non-palindromic recognition sequence (SEQ ID NO: 28, HSV UL36 gene) by the 1:1 mixture: each rationally-designed meganuclease heterodimer cleaves its intended DNA site
